{
  "source": "paper PMC5830531",
  "assay_in_all_cases": "EMSA",
  "key": {"[1]": {"test_system": "MBP-A3H m1+W115A/C116S monomer (Homo sapiens (haplotype II))", "conditions": "EMSA: 50 mM HEPES pH 7.5, 250 mM NaCl, 1 mM DTT, 2.5 mM EDTA, 10% glycerol, on ice 10 min, protein up to 8 uM, 8% native PAGE"}, "[2]": {"test_system": "MBP-A3H m1 monomer (Homo sapiens (haplotype II))", "conditions": "EMSA: 50 mM HEPES pH 7.5, 250 mM NaCl, 1 mM DTT, 2.5 mM EDTA, 10% glycerol, on ice 10 min, protein up to 8 uM, 8% native PAGE"}, "[3]": {"test_system": "MBP-A3H m1+H114A monomer (Homo sapiens (haplotype II))", "conditions": "EMSA: 50 mM HEPES pH 7.5, 250 mM NaCl, 1 mM DTT, 2.5 mM EDTA, 10% glycerol; on ice 10 min; protein up to 8 uM; 1 nM RNA or 10 nM DNA; 8% native PAGE; n=3 …"}, "[4]": {"conditions": "smeared bands, approximate, 1 nM RNA or 10 nM …, n=3, Table"}},
  "data": [
    {"substance": "8 nt ssDNA", "values": [
      {"measurement": "Kd", "setting": "[1]; [4]", "value": 2960, "unit": "nM"},
      {"measurement": "Kd", "setting": "[2]; [4]", "value": 983, "unit": "nM"}
    ]},
    {"substance": "13 nt ssDNA", "values": [
      {"measurement": "Kd", "setting": "[1]; approximate estimate, 1 nM RNA or 10 nM DNA, n=3 …", "value": 497, "unit": "nM"},
      {"measurement": "Kd", "setting": "[2]; approximate estimate, monomer assigned from the monomer comparison, 1 nM RNA or 10 nM DNA, n=3 …", "value": 272, "unit": "nM"}
    ]},
    {"substance": "50 nt ssRNA", "values": [
      {"measurement": "Kd", "setting": "[3]", "value": 34, "unit": "nM"},
      {"measurement": "Kd", "setting": "[1]; 1 nM RNA or 10 nM DNA, n=3 …", "value": 12, "unit": "nM"},
      {"measurement": "Kd", "setting": "[2]; 1 nM RNA or 10 nM DNA, n=3 …", "value": 8, "unit": "nM"}
    ]}
  ]
}
